Laboratory results from US20180119166A1.

Molecular target: 6x-histidine-fused LOS4 (LOS4-His) (Arabidopsis) (UniProt Q93ZG7)
Experiment: cell-based or functional assay

Chain of 6x-histidine-fused LOS4 (LOS4-His) (Arabidopsis) (Q93ZG7 other isoform, or with tags, fused parts or gaps limits assumed): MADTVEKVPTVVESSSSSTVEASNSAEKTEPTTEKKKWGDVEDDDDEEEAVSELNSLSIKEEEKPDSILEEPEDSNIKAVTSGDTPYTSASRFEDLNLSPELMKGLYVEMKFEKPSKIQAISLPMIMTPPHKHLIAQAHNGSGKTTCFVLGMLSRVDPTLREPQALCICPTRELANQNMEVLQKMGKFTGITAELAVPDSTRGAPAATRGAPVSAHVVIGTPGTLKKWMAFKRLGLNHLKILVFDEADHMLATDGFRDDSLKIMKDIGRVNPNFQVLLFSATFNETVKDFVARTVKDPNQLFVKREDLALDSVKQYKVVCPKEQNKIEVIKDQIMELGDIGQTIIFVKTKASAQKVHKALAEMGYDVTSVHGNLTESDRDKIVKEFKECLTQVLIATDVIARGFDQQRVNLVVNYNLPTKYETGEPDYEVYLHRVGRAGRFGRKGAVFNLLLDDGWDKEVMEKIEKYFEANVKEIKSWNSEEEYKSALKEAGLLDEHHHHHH

## MBP fusion protein of the carboxyl-terminal domain of Gle1 (MBP-Gle1C; amino acid residues 244-611) (from UniProt Q0WPZ7 244-611)
  LOS4 ATPase activity with RNA (LOS4-His and MBP-Gle1C at a ratio of 1:2): 3 fold

## MBP-Gle1C (ID) (from UniProt Q0WPZ7 244-611)
  fold decrease in LOS4-stimulating activity against MBP-Gle1C, absence of InsP6: > 2 fold
